These results are taken from the supplement of paper PMC9112550, “Optimization of the antimicrobial peptide Bac7 by deep mutational scanning” (BMC Biology, 2022).

In the data set the test system is Escherichia coli TOP10. Nature of the data set: shrunken log2 fold change of peptide-encoding DNA abundance (4.5 h post-induction vs induction); higher = less antimicrobial activity (less host growth inhibition). The conditions noted are these: time post-induction: 4.5 h; library: site-saturation at positions 5, 18, 19, 20.
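Also: peptides expressed intracellularly from a pBAD plasmid library in pooled LB shake-flask culture, induced with 0.3% L-arabinose, DNA abundance read by NGS, three biological replicates, DESeq2 with apeglm shrinkage.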

As for RRIRSRPPRLPRPRPRPYLRPRP, the “shrunken log2 fold change” value was -0.00709.

Turning to RRIRFRPPRLPRPRPRPVKVPRP, the “shrunken log2 fold change” value is -0.297.

On to RRIRHRPPRLPRPRPRPMQYPRP, for which the “shrunken log2 fold change” value is -0.104.

As for RRIRSRPPRLPRPRPRPDPIPRP, the “shrunken log2 fold change” value is -0.0376.

For RRIRHRPPRLPRPRPRPLPDPRP, the “shrunken log2 fold change” value is -0.299.

In the case of RRIRERPPRLPRPRPRPKFDPRP, the “shrunken log2 fold change” value turned out to be 0.154.

In the case of RRIRFRPPRLPRPRPRPTQVPRP, the “shrunken log2 fold change” value is -0.284.

For the sequence RRIRKRPPRLPRPRPRPSFKPRP, the “shrunken log2 fold change” value was -0.0346.

As for RRIRFRPPRLPRPRPRPNVMPRP, the “shrunken log2 fold change” value is -0.166.

In the case of RRIRIRPPRLPRPRPRPDGYPRP, the “shrunken log2 fold change” value is -0.00133.

Take RRIRHRPPRLPRPRPRPCIKPRP: the “shrunken log2 fold change” value is -0.721.

In the case of RRIRKRPPRLPRPRPRPKPHPRP, the “shrunken log2 fold change” value came out at 0.747.

For RRIRYRPPRLPRPRPRPVPLPRP, the “shrunken log2 fold change” value was -0.17.

On to RRIRLRPPRLPRPRPRPDIPPRP, for which the “shrunken log2 fold change” value is -0.0741.

Consider RRIRGRPPRLPRPRPRPNRWPRP, for which the “shrunken log2 fold change” value was determined as 0.617.

For the sequence RRIRWRPPRLPRPRPRPAHPPRP, the “shrunken log2 fold change” value came out at 0.304.

Consider RRIRQRPPRLPRPRPRPLGRPRP, for which the “shrunken log2 fold change” value was -0.00354.

Consider RRIRRRPPRLPRPRPRPNWEPRP, for which the “shrunken log2 fold change” value is -0.0176.

Take RRIRRRPPRLPRPRPRPAAEPRP: the “shrunken log2 fold change” value came out at 0.845.

As for RRIRCRPPRLPRPRPRPHWVPRP, the “shrunken log2 fold change” value is -0.0374.

RRIRTRPPRLPRPRPRPTATPRP: the “shrunken log2 fold change” value came out at 0.286.

For the sequence RRIRIRPPRLPRPRPRPKFEPRP, the “shrunken log2 fold change” value is -0.361.

RRIRPRPPRLPRPRPRPHNKPRP: the “shrunken log2 fold change” value was -0.508.

As to RRIRMRPPRLPRPRPRPHHLPRP, the “shrunken log2 fold change” value turned out to be 0.0151.

For RRIRPRPPRLPRPRPRPLSDPRP, the “shrunken log2 fold change” value was -0.0446.

In the case of RRIRMRPPRLPRPRPRPWMVPRP, the “shrunken log2 fold change” value is -0.128.

RRIRKRPPRLPRPRPRPLTCPRP: the “shrunken log2 fold change” value is -0.000599.

Consider RRIRNRPPRLPRPRPRPRMHPRP, for which the “shrunken log2 fold change” value stood at 0.217.

Regarding RRIRGRPPRLPRPRPRPLFGPRP, the “shrunken log2 fold change” value was 0.584.

In the case of RRIRQRPPRLPRPRPRPYKIPRP, the “shrunken log2 fold change” value was -0.568.

RRIRPRPPRLPRPRPRPIETPRP: the “shrunken log2 fold change” value was 0.0267.

On to RRIRMRPPRLPRPRPRPSALPRP, for which the “shrunken log2 fold change” value came to 0.105.

In the case of RRIRERPPRLPRPRPRPQHRPRP, the “shrunken log2 fold change” value came out at 0.152.

As to RRIRNRPPRLPRPRPRPHRLPRP, the “shrunken log2 fold change” value is -0.00303.

Take RRIRLRPPRLPRPRPRPAHCPRP: the “shrunken log2 fold change” value came out at 0.0914.

For RRIRFRPPRLPRPRPRPVHGPRP, the “shrunken log2 fold change” value was 0.284.

Regarding RRIRRRPPRLPRPRPRPRCMPRP, the “shrunken log2 fold change” value came out at 0.1.

With RRIRMRPPRLPRPRPRPQCIPRP, the “shrunken log2 fold change” value is 0.0157.

For the sequence RRIRDRPPRLPRPRPRPIYYPRP, the “shrunken log2 fold change” value was -0.253.

As to RRIRIRPPRLPRPRPRPMKRPRP, the “shrunken log2 fold change” value was found to be 0.0451.

As for RRIRFRPPRLPRPRPRPFDQPRP, the “shrunken log2 fold change” value was -0.291.

As to RRIRCRPPRLPRPRPRPENEPRP, the “shrunken log2 fold change” value came out at 0.113.

As for RRIRERPPRLPRPRPRPGCVPRP, the “shrunken log2 fold change” value is 0.118.

In the case of RRIRIRPPRLPRPRPRPRWSPRP, the “shrunken log2 fold change” value came out at 0.0458.

For the sequence RRIRLRPPRLPRPRPRPTDCPRP, the “shrunken log2 fold change” value is -0.197.

In the case of RRIRIRPPRLPRPRPRPPHRPRP, the “shrunken log2 fold change” value was -0.144.

For the sequence RRIRNRPPRLPRPRPRPSDSPRP, the “shrunken log2 fold change” value is -0.0909.

Consider RRIRPRPPRLPRPRPRPEVRPRP, for which the “shrunken log2 fold change” value is -0.0106.

Turning to RRIRLRPPRLPRPRPRPFNNPRP, the “shrunken log2 fold change” value was -0.426.

Regarding RRIRYRPPRLPRPRPRPKWIPRP, the “shrunken log2 fold change” value is -0.863.

With RRIRWRPPRLPRPRPRPLGHPRP, the “shrunken log2 fold change” value worked out at 0.035.

RRIRARPPRLPRPRPRPRKVPRP: the “shrunken log2 fold change” value was 0.615.

Regarding RRIRMRPPRLPRPRPRPVERPRP, the “shrunken log2 fold change” value was determined as 0.015.

Turning to RRIRLRPPRLPRPRPRPDRPPRP, the “shrunken log2 fold change” value turned out to be 0.265.

For RRIRCRPPRLPRPRPRPKEAPRP, the “shrunken log2 fold change” value came out at 0.085.

In the case of RRIRIRPPRLPRPRPRPTSWPRP, the “shrunken log2 fold change” value worked out at 0.0769.

As to RRIRSRPPRLPRPRPRPHKFPRP, the “shrunken log2 fold change” value worked out at 0.00286.

On to RRIRHRPPRLPRPRPRPQFWPRP, for which the “shrunken log2 fold change” value stood at 0.115.

For the sequence RRIRPRPPRLPRPRPRPMSLPRP, the “shrunken log2 fold change” value is -0.769.

Turning to RRIRNRPPRLPRPRPRPLADPRP, the “shrunken log2 fold change” value is -0.00474.

Consider RRIRCRPPRLPRPRPRPGMHPRP, for which the “shrunken log2 fold change” value is -0.0345.

For the sequence RRIRCRPPRLPRPRPRPVACPRP, the “shrunken log2 fold change” value was -0.0888.

For the sequence RRIRPRPPRLPRPRPRPDWCPRP, the “shrunken log2 fold change” value is -0.179.

Take RRIRVRPPRLPRPRPRPMQYPRP: the “shrunken log2 fold change” value is -0.324.

Take RRIRKRPPRLPRPRPRPKTEPRP: the “shrunken log2 fold change” value was -0.0466.

Regarding RRIRTRPPRLPRPRPRPVYAPRP, the “shrunken log2 fold change” value was -0.249.

As for RRIRCRPPRLPRPRPRPMGNPRP, the “shrunken log2 fold change” value was -0.729.

In the case of RRIRNRPPRLPRPRPRPHIVPRP, the “shrunken log2 fold change” value is -0.249.

Turning to RRIRARPPRLPRPRPRPKAIPRP, the “shrunken log2 fold change” value is 0.496.

With RRIRHRPPRLPRPRPRPYFPPRP, the “shrunken log2 fold change” value was -1.43.

On to RRIRKRPPRLPRPRPRPPACPRP, for which the “shrunken log2 fold change” value is 0.197.

Turning to RRIRHRPPRLPRPRPRPPWCPRP, the “shrunken log2 fold change” value came out at 0.0341.

RRIRDRPPRLPRPRPRPPQGPRP: the “shrunken log2 fold change” value stood at 0.289.

As to RRIRLRPPRLPRPRPRPHEAPRP, the “shrunken log2 fold change” value was determined as 0.107.

For the sequence RRIRSRPPRLPRPRPRPTRAPRP, the “shrunken log2 fold change” value was determined as 0.738.

On to RRIRNRPPRLPRPRPRPSNVPRP, for which the “shrunken log2 fold change” value is -0.615.

Regarding RRIRPRPPRLPRPRPRPSRAPRP, the “shrunken log2 fold change” value is 0.11.

With RRIRRRPPRLPRPRPRPSYKPRP, the “shrunken log2 fold change” value is -0.563.

For the sequence RRIRIRPPRLPRPRPRPIGFPRP, the “shrunken log2 fold change” value was 0.0766.

For the sequence RRIRLRPPRLPRPRPRPGEAPRP, the “shrunken log2 fold change” value is 0.214.

Turning to RRIRLRPPRLPRPRPRPRGGPRP, the “shrunken log2 fold change” value was determined as 0.515.

With RRIRYRPPRLPRPRPRPCQAPRP, the “shrunken log2 fold change” value is -0.269.

In the case of RRIRSRPPRLPRPRPRPQCKPRP, the “shrunken log2 fold change” value is 0.0936.

In the case of RRIRMRPPRLPRPRPRPDTYPRP, the “shrunken log2 fold change” value came to 0.0447.

Turning to RRIRRRPPRLPRPRPRPISIPRP, the “shrunken log2 fold change” value is -0.0402.

Turning to RRIRKRPPRLPRPRPRPGERPRP, the “shrunken log2 fold change” value is -0.116.

Consider RRIRLRPPRLPRPRPRPSFYPRP, for which the “shrunken log2 fold change” value is -0.7.

With RRIRHRPPRLPRPRPRPVWWPRP, the “shrunken log2 fold change” value was determined as 0.174.

On to RRIRWRPPRLPRPRPRPFKGPRP, for which the “shrunken log2 fold change” value is -0.0135.

Turning to RRIRSRPPRLPRPRPRPPESPRP, the “shrunken log2 fold change” value came to 0.877.

For the sequence RRIRYRPPRLPRPRPRPIWDPRP, the “shrunken log2 fold change” value was -0.13.

As for RRIRNRPPRLPRPRPRPVYCPRP, the “shrunken log2 fold change” value is -0.688.

As for RRIRGRPPRLPRPRPRPKADPRP, the “shrunken log2 fold change” value came to 1.29.

On to RRIRIRPPRLPRPRPRPGFFPRP, for which the “shrunken log2 fold change” value was -0.00894.

With RRIRIRPPRLPRPRPRPTTWPRP, the “shrunken log2 fold change” value is -0.165.

As for RRIRERPPRLPRPRPRPTKRPRP, the “shrunken log2 fold change” value is -0.176.

With RRIRTRPPRLPRPRPRPQDQPRP, the “shrunken log2 fold change” value is 0.0516.

For the sequence RRIRRRPPRLPRPRPRPDSQPRP, the “shrunken log2 fold change” value is 0.157.

For RRIRWRPPRLPRPRPRPNQDPRP, the “shrunken log2 fold change” value worked out at 0.0957.

For the sequence RRIRNRPPRLPRPRPRPQLQPRP, the “shrunken log2 fold change” value was -0.0979.

Consider RRIRTRPPRLPRPRPRPYASPRP, for which the “shrunken log2 fold change” value is -0.255.

On to RRIRKRPPRLPRPRPRPMMKPRP, for which the “shrunken log2 fold change” value was 1.05.

For RRIRFRPPRLPRPRPRPLWVPRP, the “shrunken log2 fold change” value turned out to be 0.0127.

As for RRIRPRPPRLPRPRPRPSWNPRP, the “shrunken log2 fold change” value was -0.158.

In the case of RRIRFRPPRLPRPRPRPGGEPRP, the “shrunken log2 fold change” value came out at 0.271.

In the case of RRIRCRPPRLPRPRPRPCQAPRP, the “shrunken log2 fold change” value is -0.244.

Regarding RRIRNRPPRLPRPRPRPFREPRP, the “shrunken log2 fold change” value was -0.0373.

RRIRSRPPRLPRPRPRPETQPRP: the “shrunken log2 fold change” value is 0.29.

For the sequence RRIRQRPPRLPRPRPRPNFYPRP, the “shrunken log2 fold change” value was -0.0848.

For the sequence RRIRSRPPRLPRPRPRPLWTPRP, the “shrunken log2 fold change” value was determined as 0.0886.

Regarding RRIRQRPPRLPRPRPRPFMSPRP, the “shrunken log2 fold change” value is -0.0241.

For the sequence RRIRIRPPRLPRPRPRPSIFPRP, the “shrunken log2 fold change” value was -0.764.

Turning to RRIRVRPPRLPRPRPRPRPHPRP, the “shrunken log2 fold change” value was found to be 0.351.

Take RRIRDRPPRLPRPRPRPYNGPRP: the “shrunken log2 fold change” value was -0.0516.

For the sequence RRIRCRPPRLPRPRPRPKRAPRP, the “shrunken log2 fold change” value is 0.778.

Consider RRIRFRPPRLPRPRPRPQNIPRP, for which the “shrunken log2 fold change” value is -0.411.

With RRIRLRPPRLPRPRPRPVPCPRP, the “shrunken log2 fold change” value is -0.239.

As to RRIRERPPRLPRPRPRPSGSPRP, the “shrunken log2 fold change” value stood at 0.0459.

In the case of RRIRLRPPRLPRPRPRPEMNPRP, the “shrunken log2 fold change” value came to 0.176.

On to RRIRNRPPRLPRPRPRPANHPRP, for which the “shrunken log2 fold change” value is -0.208.

As for RRIRIRPPRLPRPRPRPLQDPRP, the “shrunken log2 fold change” value is -0.31.

With RRIRTRPPRLPRPRPRPNWVPRP, the “shrunken log2 fold change” value is -0.159.

With RRIRHRPPRLPRPRPRPWFLPRP, the “shrunken log2 fold change” value was -0.315.

Regarding RRIRPRPPRLPRPRPRPDFRPRP, the “shrunken log2 fold change” value is -0.184.

In the case of RRIRSRPPRLPRPRPRPIDWPRP, the “shrunken log2 fold change” value was 0.217.
